According to paper PMC2929022 (Molecular cell, 2010):

T1: GST-YcgR-HA fusion (wild-type YcgR of E. coli) (E. coli, UniProt P76010 1-244)
T1 sequence (looked up): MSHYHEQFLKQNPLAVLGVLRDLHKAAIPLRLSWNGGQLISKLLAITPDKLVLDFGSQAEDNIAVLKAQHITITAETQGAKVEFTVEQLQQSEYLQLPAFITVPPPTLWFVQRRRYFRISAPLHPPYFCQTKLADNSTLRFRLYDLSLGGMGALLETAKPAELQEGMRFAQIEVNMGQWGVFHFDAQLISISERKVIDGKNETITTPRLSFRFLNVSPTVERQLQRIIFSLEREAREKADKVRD

B1: FliM (E. coli) (natural protein, UniProt P06974 1-334, looked up)
chain: MGDSILSQAEIDALLNGDSEVKDEPTASVSGESDIRPYDPNTQRRVVRERLQALEIINERFARHFRMGLFNLLRRSPDITVGAIRIQPYHEFARNLPVPTNLNLIHLKPLRGTGLVVFSPSLVFIAVDNLFGGDGRFPTKVEGREFTHTEQRVINRMLKLALEGYSDAWKAINPLEVEYVRSEMQVKFTNITTSPNDIVVNTPFHVEIGNLTGEFNICLPFSMIEPLRELLVNPPLENSRNEDQNWRDNLVRQVQHSQLELVANFADISLRLSQILKLNPGDVLPIEKPDRIIAHVDGVPVLTSQYGTLNGQYALRIEHLINPILNSLNEEQPK
B2: FliG (E. coli) (natural protein, UniProt P0ABZ1 1-331, looked up)
chain: MSNLTGTDKSVILLMTIGEDRAAEVFKHLSQREVQTLSAAMANVTQISNKQLTDVLAEFEQEAEQFAALNINANDYLRSVLVKALGEERAASLLEDILETRDTASGIETLNFMEPQSAADLIRDEHPQIIATILVHLKRAQAADILALFDERLRHDVMLRIATFGGVQPAALAELTEVLNGLLDGQNLKRSKMGGVRTAAEIINLMKTQQEEAVITAVREFDGELAQKIIDEMFLFENLVDVDDRSIQRLLQEVDSESLLIALKGAEQPLREKFLRNMSQRAADILRDDLANRGPVRLSQVENEQKAILLIVRRLAETGEMVIGSGEDTYV

Target: T1, GST-YcgR-HA fusion (wild-type YcgR of …)
Assay: pull-down

| Binder | fold increase of binding with c-di-GMP at 5 μM or higher over no added c-di-GMP [fold] |
| --- | --- |
| B1 | ~2 |
| B2 | ~2 |
